{"source": "the DeepSol protein solubility set"}
{"assay": "soluble on expression in E. coli; label from the status in PepcDB or PDB records"}
{"sequence": "MKNLAIFDLDNTLINTDSDHAWPQYLIKKGLVDAAETEAQNEKFYRDYQNGCLDIDAFLKFHLAPLARYSKEELAEFHREFMAEYIIPHISPMQRMLVQSHQMAGDETLVISSTNEFIITPVCHLFGITNIIGTQLETGSDGRYTGNYIGTPSLKEGKITRLNQWLAERGETLQSYGKTYFYSDSKNDLPLLRLVSEPVAVNPDAELEKEAKEKGWPVLNFK", "soluble on expression in E. coli": "soluble"}
{"sequence": "MILRRPSQADKEAILDMMGEFEREKSVHDGGFWNADNFIYEEWLEENLQSEAGLNIPENWVPAIQLVSFNESGHALGFLHLRLRLNGRLLEKGGHIGYSIRPSERGKGYAKESLRQGLQVAKEKNIQRALVTCSTENPASRAVILANGGQLEDICNETERYWIDLE", "soluble on expression in E. coli": "not soluble"}
{"sequence": "MGSDKIHHHHHHAQTKSLHQLQQEFVDLRCGMFIHFNMPTFFNEDWPDPDAAPELFNPVRMDCKQWAKAAKSANMTYGCLTTKHHSGFCIWDTKTTDYSVMSSPFKRDVVKEYADAFRAEGMKVMLYYSILDTHARLRPKCITPQHIEMIKEQLRELLTNYGEITALIIDGWDAPWSRISYDDVPFEDIYRLVKSIQPNCLVMDLNAAKYPAEALFYTDIKSYEQGAGQHISKDTNRLPALSCLPLQQNWFWKESFPTTPVKSPAQMVNDNIIPMGKSYCNFILNVAPNRDGLMDANALKALKEIGKLWKNDGRVATVPEADAPIISSNIAKYQPAEGTWSSDYAIMDFANDDDFGTCWNSNPEVKVPWYSVTFEREKSFNMVVITDRNNDRLQEYRLEYRAGGTWKPLYEGKAPTGLRVKIHRFDTVWGDAVRMTVLNSNGTTSIAEFGVYCERR", "soluble on expression in E. coli": "not soluble"}
{"sequence": "MAKGYWIAQVDVRDSERYKDYVSTAKPAFERFGANFLARGGSVTELEGTARARNVVIEFPSVQHAIDCYNSPEYQAAAKIRQEVADAEMMIVEGI", "soluble on expression in E. coli": "soluble"}
{"sequence": "MGSDKIHHHHHHMTQCPLVSISCLTYNHAPYLRQCLDGFVMQITSFPIEILIYDDASGDGTQNIIEEYQKKYPDIIKPIYQTENQYSKGVKVGFVYNYSRAKGEYIAFCEGDDYWTDPYKLQKQIDFLECYSDYVICSHRYRICLKEEKVMNDEIKPIGDLSDGMSFDLSFLIRGGWLFQPLSVVYRKSALDLDTYSKYAIYIDVALFYAILKNGKGYCMPDVMGVYRIHEKGVWSGLDLNHQRIFSLKAREAIYDVEKTDEAAMFILSQFSRPMGRFLVVKECSMFMRITKILISHFGLRFVLRMWFDRLFLNKKLCVNEFYQIKDFCKRKKNG", "soluble on expression in E. coli": "not soluble"}
{"sequence": "SNAMSDTLYIKMDQAVEITKKQVTVGDVAKLQCKNKNITNRLKSMKLLEDTTKGKKRYIVSIMKIIEMADQTFQNVDIQNIGETECVVEFKTPKKDDGPM", "soluble on expression in E. coli": "soluble"}
{"sequence": "MTEAGASIVVTVKNEGKNLRELLESIEKNDFTNFETVVVDDLSTDDTEDIVKSYRFTVYKRIACSRGEGRNIGVDLSRYGYILFTDGDAKVSEHWISGMVSALAAGNDAVIGNTLYTGKRRYMQERVKIFLEGIEVTAPSVNLAYRKDRFRQLGGFDPKFVTAEDIDLNIRAVKAGFRFATCDSCVVYAKVRENLASFLRQAYWNGYGRYQLEMKHPGITRNTRVRLGHNFFDFLHMVSGAAGYLSARISEGKQGRLEHHHHHH", "soluble on expression in E. coli": "soluble"}
{"sequence": "MSKSQYKMSKITYASGKMRPPSLIQKLNVYKPFLLIVDINSTNFALVGNGEILGHLFYRQNSPSYTQIKSRLVIYPKCCKLYSEDIAIPLHDWKIENLGAIKLLTKHNSLKTGTLHQIDKTMMLVYMAAFGEDSGVRSKISKPHGKTATWRNQHDLFMQ", "soluble on expression in E. coli": "not soluble"}
{"sequence": "MGSDKIHHHHHHMLSKICMKILTVLDSYPPDLNGGAYFTHRLAKFLQAKGHEVLVICPSRSLKQGYTSYEGVNLYGVRSWPALGYKNFRVCWPFFIKKGILKAITDFNPDVVHLQGKFFLGGICYRACRKKGIPLMATNHFMPENFFHYTHLPKYFEKWFHRTTWNIVIDMLNHVKIVTTPTHTAANLLKEVHIQKEIHVVSCGVDLQKFQPKQNANLIRQRYKIPDKPILLYAGRLDKEKNLSIAIKAFYKARQSIDAHFVLTGRGAELQRLKKLVQTLNLTEHVTFTGYLSDAEYPLVYSLANCFVNPGTAELQSIVALEAIASGLPLLAAKAMALPELVKEGVNGYLFDPNDVETLSCYMVKILSDRTFSEQMGRESRKLSQEHDIKRTIEQYETLYQSMVS", "soluble on expression in E. coli": "not soluble"}
{"sequence": "MESKVERYVENYVVTKNTMALLPVILSEKKIVTRVVEMNDSFFVFQKPLDIIERSCRKHGSSFLGRKEGTKELTHITHKAPIAISPADQLYFFPTYSYSRKECAWLSHFYIESNKELKDGNLIIRFINGFAVKLEISKTSFENQQNRTAKLRTEYEDRRKKQGNPCFKEVDKKEESTLRPAYESVYFVKEGEV", "soluble on expression in E. coli": "not soluble"}
{"sequence": "SAIITTTTVRFTDGTSPTFFSSASTKAYNLHFLYSNSTQRLTNPKFGIGGKLKVTVNPYSYTEEVRPEERKSLTDFLTEAGDFVNSDGGDGGPPRWFSPLECGARAPESPLLLYLPGIDGTGLGLIRQHKRLGEIFDIWCLHFPVKDRTPARDIGKLIEKTVRSEHYRFPNRPIYIVGESIGASLALDVAASNPDIDLVLILANPVTRFTNLMLQPVLALLEILPDGVPGLITENFGFYQEMFETMLNENDAAQMGRGLLGDFFATSSNLPTLIRIFPKDTLLWKLQLLKSASASANSQMDTVNAQTLILLSGRDQWLMNKEDIERLRGALPRCEVRELENNGQFLFLEDGVDLVSIIKRAYYYRRGKSLDYISDYILPTPFEFKEYEESQRLLTAVTSPVFLSTLKNGAVVRSLAGIPSEGPVLYVGNHMLLGMELHAIALHFLKERNILLRGLAHPLMFTKKTGSKLPDMQLYDLFRIIGAVPVSGMNFYKLLRSKAHVALYPGGVREALHRKGEEYKLFWPEHSEFVRIASKFGAKIIPFGVVGEDDLCEMVLDYDDQMKIPFLKNLIEEITQDSVNLRNDEEGELGKQDLHLPGIVPKIPGRFYAYFGKPIDTEGREKELNNKEKAHEVYLQVKSEVERCMNYLKIKRETDPYRNILPRSLYYLTHGFSSQIPTFDLRNH", "soluble on expression in E. coli": "not soluble"}
{"sequence": "GMSTSPADTARYNRFVADLFGMMAYGELSAFERFSADARYSPTLHDRAVLGRIAVVEFRHYELVSARLEAMGIDAEDAMLPFQAAVDYFHSRTRPADWYESLMKAYVIDTVSADFYRAISRYVDAGTRDVIEQIQASDETTEVLRERLRSALADDPRLASRLALWGRRLLGEALTQAQRVSYEHAFLGSLIGGEDSAAAKELVSGLIAGLAEKHSKRMTQLGLTG", "soluble on expression in E. coli": "soluble"}
{"sequence": "MRRNYSRVIDELRTDYGLNLVAIGQRLGTDPRTVGKWWQGKHNPNQESRKKLNRLYREVKETMMTQVNIFEEANDNTKQVMQVITTTNFHGQPLDIYGDIQEPLFLARAVAEMIDYTKTSQGYYDVQAMLRKVDEDEKLKGMALEGTTKNFRSGQKVWFLTEHGLYEVLMRSNKPKAKEFRKAVKNILKEIRLNGYYMQGELVQELAQPSTQKLPGISDLTYILNKLADLVDMDNLADISNGIDRVQQLVKLISL", "soluble on expression in E. coli": "not soluble"}
{"sequence": "MTDAQSRDEKGIPASIYDGIFKNNRQIKPGNPNELKMVMGLKLKEVNKDCADAVLRVSKATLSWEIVREIMNATERLIQERVSDPTGQVAIAVDPPSSWSKSVTDFLASCYKLSPSPNFKFLELLAILTGKSQYLILQWFDTAEEEKREKNQKLETATFKRHCPWRKRHRLIQPLSNATAIPFLEAAFQKSSIPGSVELYDLQLKTNWFICELKAWFTARRVAEEIKGKLSELTGVQGVAKDQS", "soluble on expression in E. coli": "not soluble"}
{"sequence": "GSHMSPKIVDAGTATVPHTMSTMKTADNRPASVYLKKDKPTLIKFWASWCPLCLSELGQAEKWAQDAKFSSANLITVASPGFLHEKKDGEFQKWYAGLNYPKLPVVTDNGGTIAQNLNISVYPSWALIGKDGDVQRIVKGSINEAQALALIRNPNADLGSLKHS", "soluble on expression in E. coli": "soluble"}
{"sequence": "MSQKQEEENPAEETGEEKQDTQEKEGILPERAEEAKLKAKYPSLGQKPGGSDFLMKRLQKGQKYFDSGDYNMAKAKMKNKQLPSAGPDKNLVTGDHIPTPQDLPQRKSSLVTSKLAGGQVE", "soluble on expression in E. coli": "soluble"}
{"sequence": "MNLPDGTQLVVGRQLAKVKSNQNWIRIPEYKVRGNKVIISHLWVGSINMPRRPFWSFRELWEKHLGRKDAINVWSRIRSYNTQVLLKILELLEKEPETQAKKLVKRATMHQLRNIAESFEEL", "soluble on expression in E. coli": "not soluble"}
{"sequence": "MSLQHMYRCARVQGLDTSEGLLLFGKEHFYVIDGFTMTATREIRDIETLPPNMHEPIIPRGARQGPSQLKRTCSIFAYEDIKEVHKRRYLLQPIAVEVFSGDGRNYLLAFQKGIRNKVYQRFLAVVPSLTDSSESVSGQRPNTSVEQGSGLLSTLVGEKSVTQRWERGEISNFQYLMHLNTLAGRSYNDLMQYPVFPWILSDYDSEEVDLTNPKTFRNLAKPMGAQTDERLAQYKKRYKDWEDPNGETPAYHYGTHYSSAMIVASYLVRMEPFTQIFLRLQGGHFDLADRMFHSVREAWYSASKHNMADVKELIPEFFYLPEFLFNSNNFDLGCKQNGTKLGDVILPPWAKGDPREFIRVHREALECDYVSAHLHEWIDLIFGYKQQGPAAVEAVNVFHHLFYEGQVDIYNINDPLKETATIGFINNFGQIPKQLFKKPHPPKRVRSRLNGDNIGISVPPGATSDKIFFHHLDNLRPSLTPVKELKEPVGQIVCTDKGILAVEQNKVLIPPAWNKTFAWGYADLSCRLGTYESDKAVTVYECLSEWGQILCAVCPNPKLVITGGTSTVVCVWEMGTSKEKAKPLTLKQALLGHTDTVTCATASLAYHIIVSGSRDRTCIIWDLNKLSFLTQLRGHRAPVSALCINELTGDIVSCAGTYIHVWSINGNPIVSVNTFTGRSQQIVCCCMSEMNEWDTQNVIVTGHSDGVVRFWRMEFLQVPETPAPEPVEDLEMQEGCPEAQIGQQAQDDDSSDSETEEPSVSQDPKDTSSQPSSTSHRPRAASCRATATWCTDSGSDDSRRWSDQLSLDEKDGFIFVNYSEGQTRAHLQGPLAHPHPNPIEARSYSRLKPGYRWERQLVFRSKLTMHTAFDRKDNTHPAEVTALGVSKDHSRILVGDSRGRVFSWSVSDQEGHHHHHH", "soluble on expression in E. coli": "not soluble"}
{"sequence": "MNFNQFENQNFFNGNPSDTFKDLGKQVFNYFSTPSFVTNIYETDELYYLEAELAGVNKEDISIDFNNNTLTIQATRSAKYKSEQLILDERNFESLMRQFDFEAVDKQHITASFENGLLTITLPKILEHHHHHH", "soluble on expression in E. coli": "soluble"}
{"sequence": "MTFKPVEICVYGADVICPACVQLPSSKETYEWLEAALRRKYPDQPFVMTYVDIFAPPADDEEKRELAQTIVEEDWVYPVVVIEGNVVAEGNPRLKAICAEMEKFGYRPSAHEGKKAE", "soluble on expression in E. coli": "not soluble"}
{"sequence": "MYLCEEHFKEYFERKVARTIEKYKLASKDERILVAVSGGKDSAVTAYVLKKLGYKIECLHLNLGIGEYSEKSEIYAKKQCEFIGAPLNIIRVKELLGYGIGEVRTSRPTCSYCGLTKRYIMNKFAYDNGFDAVATGHNLDDEASFLMNNLLHWNTEYLAKGGPLLPGEGKFVKKIKPLYELTEREVVAYAIAVGLEYIVEECPYARGATTLDMKEVLNELEEKRPGTKFNFVRGFLRKKKLFEPEVKGKDLKECKICGMPASGEICSFCKFWKLGKPLTFKIK", "soluble on expression in E. coli": "not soluble"}
{"sequence": "MNIMITKKAFDWYKRELGLKPGDAIRFFARYGGCSTVQKGFSLGMAKDELVDKPAAQTTVDGITFFIEESDQWYFDGRDLTVDLDEKSDEPVFLVH", "soluble on expression in E. coli": "not soluble"}
{"sequence": "MGSDKIHHHHHHMGFRNVIITQHSKLSYSNNAMIVQNKDGINQIPLVDMDILLISTTQAVITSALVSKLAESGIKVIFTDNKNEPVTETVNYYPNNRSLDTYLQQYEWNDHVKEILWTKIVRSKIINQIKVLKNYQIDCQDLKIELDKLEINDMTNREAVVARKYFEKLFGNKYSRKDFTPMNAALNYGYSILLSAVNKEIVSAGYVTYLGIHHQSQENMFNFGSDLMESFRPVVDYWLADKNFLEFTPDIKYGLVDLLNLEIKYNKKQMLLKNAITKYVRDVIEYLNQETVEFDMEVEFTNEVPNNAINDNI", "soluble on expression in E. coli": "not soluble"}
